From publication PMC7952403 (Nature Communications, 2021)
Residue numbers refer to the chain shown, from its start.

B1: STE70-1E12 scFv-Fc (scFv, V domains shown)
VH: QMQLVQSGAEVKKPGASVKVSCKASGYTFTGYYMHWVRQAPGQGLEWMGRINPNSGGTNYAQKFQGRVTMTRDTSTSTAYMELSRLRSDDTAVYYCVRDGYNFNNWFDPWGQGTLVTVSS
VL: NFMLTQPHSVSGSPGETITISCTGSGGSIASNYVQWYRQRPGSAPTIVIYEDTQRPSGVPDRFSGSIDSSSNSASLTISGLKTEDEADYYCQSSESTNHVMFGGGSKLTVL
notes: also called scFv-hFc; source: Expi293F, transient transfection, purified (Protein A)
B2: STE70-1E12 IgG (antibody, V domains shown)
VH: B1 VH
VL: B1 VL
notes: source: Expi293F, transfected, purified (Protein A); copies: 2 + 2
B3: STE72-1G5 scFv-Fc (scFv, V domains shown)
VH: QVQLVQSGAEVKKPGASVKVSCKASGGTFSSYAISWVRQAPGQGLEWMGGIIPIFGTANYAQKFQGRVTITADESTSTAYMELSSLRSEDTAVYYCAVGGVQLWLTYWGQGTLVTVSS
VL: ETTLTQSPGALSLSPGERATLSCRVSQSLSSNSLAWYQQKPGQAPRLLIYDTSIRATGIPDRFSGSGSGTDFTLTISRLEPEDFAVYYCHKYGSWPRTFGQGTKVEV
notes: as for B1
B4: STE72-8E1 scFv-Fc (scFv, V domains shown)
VH: QVQLQEWGPGLVQPSETLSLTCTVSGGSISSGGYYWSWIRQHPGKGLEWIGRIYPSGSTNYNPSLKSRVTMSVDTSENQFSLKLSSVTAADTAVYYCARGGPKRSGSPFDVWGQGTMVTVSS
VL: EVVMTQSPSTLSASVGDRVTITCRASQTFGPWLAWYQQKPGQAPKLLIYMASELESGVPSRFSGSGSGTEFTLSISSLQPDDFATYYCQQYNTFSPWTFGQGTKVDIK
notes: as for B1
B5: STE72-1B6 scFv-Fc (scFv, V domains shown)
VH: QVKLVQSGGGLVQPGGSLRLSCAASGFTFSSYAMSWVRQAPGKGLEWVSGISGSGGSTYYADSVKGRFTISRDNSKNTLYLQVNSLRAEDTAVYYCAKAPYGDFRGLWYFDYWGQGTLVTVSS
VL: DIVMTQSPFSVSASVGDRVTISCRASQDIRSWLAWYQQKPGKAPQLLIYDASSLQSGVPSRFSGSGSGTDFTLTISSLQPEDFATYYCQQADSVPLTFGGGTKVEIQ
notes: as for B1
B6: STE72-1B6 IgG (antibody, V domains shown)
VH: B5 VH
VL: B5 VL
notes: as for B2
B7: STE73-2C2 scFv-Fc (scFv, V domains shown)
VH: QVQLVESGGGLVQPGGSLRLSCAASGITVSSNYMSWVRQAPGKGLEWVSVIYSGGSTFYADSVKGRFTISRDNSKNTLYLQMNSLRAEDTGVYYCARGHDNLDYWGQGTLVTVSS
VL: LPVLTQPHSVSESPGKTVIISCTGSSDSIASNYVQWYQQRPGSAPTTVIYEDNKRPSGVPDRFSGSTDSSSNSASLTISGLKTEDEAEYYCQSYDSNNHWVFGGGTKLTVL
notes: as for B1
B8: STE73-6C8 scFv-Fc (scFv, V domains shown)
VH: QVQLQQSGAEVKKPGSSVKVSCKASGGTFSSYAISWVRQAPGQGLEWMGRIIPILGIANYAQKFQGRVTITADKSTSTAYMELSSLRSEDTAVYYCARSIAALNWFDPWGQGTLVTVSS
VL: NFMLTQPHSVSESPGKTVTIPCTGSRGSIANNYVQWYRQRPGRAPTTVIFEDNQRPSGVPDRFSGSIDRSSNSASLTISGLETEDEADYYCQSYDGSNVIFGGGTKLTVL
notes: as for B1
B9: STE73-6C8 IgG (antibody, V domains shown)
VH: B8 VH
VL: B8 VL
notes: as for B2
B10: STE72-2G4 scFv-Fc (scFv, V domains shown)
VH: QVQLVQSGAEVKKPGASVKVSCKASGYTFTSYGISWVRQAPGQGLEWMGWISAYNGNTNYAQKLQGRVTMTTDTSTSTAYMELRSLRSDDTAVYYCARFFYDSSGYSTDYWGQGTLVTVSS
VL: ETTLTQSPAFMSVTPGDRAILSCRASQSVDSHLAWYHQKPGQPPRLLIYGASTRATGIPARFSGSRSGTEFTLTISGLQSEDLGVYYCQQYASWPPGYNFGQGTKLEIK
notes: as for B1
B11: STE73-2B2 scFv-Fc (scFv, V domains shown)
VH: QVQLVQSGAEVKKPGASVKVSCKASGYTFTGYYMHWVRQAPGQGLEWMGWINPNSGGTNYAQKFQGRVTITRDTSASTAYMELSSLRSEDTAVYYCARVSGWYFGAFDIWGQGTMVTVSS
VL: LPVLTQPHSLSESPGKTVNISCTGSSGSIASNYVQWYQQRPGSAPTTVIYEDSHRPSGVPDRFSGSIDSSSNSASLSISGLKTEDEADYYCQSYDSSNNQWVFGGGTKLTVL
notes: as for B1
B12: STE73-6C1 scFv-Fc (scFv, V domains shown)
VH: QVQLVQSGGGVVQPGRSLRLSCAASGFTFSSYAMHWVRQAPGKGLEWVAVISYDGSNKYYADSVKGRFTISRDNSKNTLYLQMNSLRAEDTAVYYCARSYVGGMDVWGQGTTVTVSS
VL: QLVLTQSPSVSGAPGQSVTISCTGTDSNIGAGYNVHWYQQLPGAAPKLIISYTDNRPSGVPDRFSGSKSGTSASLAITGLQAEDEADYYCQSSDRTLVGSLFGTGTKVTVL
notes: as for B1
B13: STE73-6C1 IgG (antibody, V domains shown)
VH: B12 VH
VL: B12 VL
notes: as for B2
B14: STE73-9G3 scFv-Fc (scFv, V domains shown)
VH: QVQLQESGGGLVQPGGSLRLSCAASGFTFSSYAMSWVRQAPGKGLEWVSAISGSGGSTYYADSVKGRFTISRDNSKNTLYLQMNSLRAEDTAVYYCARDLVLGSGSSNDWGRGTLVTVSS
VL: B12 VL with L2P, S7P
notes: as for B1
B15: STE73-9G3 IgG (antibody, V domains shown)
VH: B14 VH
VL: B12 VL with L2P, S7P
notes: as for B2
B16: STE72-4C10 scFv-Fc (scFv, V domains shown)
VH: EVQLQESGGGVVQPGRSLRLSCAASGFTFSSYAMHWVRQAPGKGLEWVAVISYDGSNKYYADSVKGRFTISRDNSKNTLYLQMNSLRAEDTAVYYCAREYSSSWYGLGAFDIWGQGTMVTVSS
VL: DIRLTQSPSSLSASVGDRVTITCRASQNIHYYLNWYQQKPGKAPSLLVYGASSLQSGVPSRFSGSGSGTEYTLTISSLQPEDFATYFCQQSFKSPATFGQGTKVDIK
notes: as for B1
B17: STE73-2G8 scFv-Fc (scFv, V domains shown)
VH: QVQLVQSGGGLVKPGGSLRLSCAASGITVSSNYMSWVRQAPGKGLEWVSILYSGGTTFYTDSVKGRFTISRDNSKNTLHLQMNSLRAEDTAVYYCARWSGTYYDYWGQGTLVTVSS
VL: SSELTQDPAVSVALGQTVRITCQGDSLRSYYASWYQQKPGQAPVLVIYGKNNRPSGIPDRFSGSSSGNTASLTITGAQAEDEADYYCNSRDSTNDPVLFGAGTKLTVL
notes: as for B1
B18: STE73-2G8 IgG (antibody, V domains shown)
VH: B17 VH
VL: B17 VL
notes: as for B2
B19: STE72-4E12 scFv-Fc (scFv, V domains shown)
VH: QVQLVQSGAEVKKPGASVKVSCKASGYTFTSYYMHWVRQAPGQGLEWMGIINPSGGSTSYAQKFQGRVTMTRDTSTSTVYMELSSLRSEDTAVYYCARDLSGGLDYWGQGTLVTVSS
VL: ETTLTQSPATLSVSPGERVTLACRAGQTISSKLAWYRQKPGQAPSLLIYDASTRATGVPARFSGSGSGTEFTLTISSLQSEDFAVYYCQQYSDWPPTFGQGTKVEIK
notes: as for B1
B20: STE72-4E12 IgG (antibody, V domains shown)
VH: B19 VH
VL: B19 VL
notes: as for B2
B21: STE73-2E9 scFv-Fc (scFv, V domains shown)
VH: QVQLVQSGAEVKKPGASVKVSCKASGYTFTSYGISWVRQAPGQGLEWMGWISAYNGNTNYAQKLQGRVTMTTDTSTSTAYMELRSLRSDDTAVYYCARGKFDYWGQGTLVTVSS
VL: QSVLTQPPSVSEAPSQRVTISCSGSSSNIGNNAVNWYQQLPGKAPKLLIYYDDVLPSGVSDRFSGSKSGTSASLAISGLQSGDEADYYCAAWDDSLSGVVFGGGTKLTVL
notes: as for B1

Key:
[1] = molecular target: T1, SARS-CoV-2 RBD-SD1 with murine IgG2a Fc part, produced in High Five cells (SARS-CoV-2, UniProt P0DTC2); experiment: ELISA; conditions: both partners purified
T1 construct: source: High Five insect cells, transient transfection, purified (Protein A)

[2] = molecular target: T1, SARS-CoV-2 RBD-SD1 with murine IgG2a Fc …; experiment: flow cytometry on cells; conditions: both partners purified

Binder | EC50 [1] | IC50 [2]
B1 | 0.3 nM | 3.2 nM
B2 | 0.3 nM | –
B3 | 2.8 nM | –
B4 | 0.4 nM | 5.6 nM
B5 | 0.5 nM | 4.8 nM
B6 | 1.1 nM | –
B7 | 3.1 nM | 3 nM
B8 | 1.1 nM | 5.4 nM
B9 | 2.9 nM | –
B10 | 0.2 nM | 3.7 nM
B11 | 0.2 nM | 1.7 nM
B12 | 0.6 nM | 4.1 nM
B13 | 14.1 nM | –
B14 | 0.4 nM | 3.4 nM
B15 | 0.4 nM | –
B16 | 0.5 nM | 3.5 nM
B17 | 0.2 nM | 2.8 nM
B18 | 0.8 nM | –
B19 | 1.5 nM | 3 nM
B20 | 1.6 nM | –
B21 | – | 3.4 nM
